Laboratory results reported in paper doi:10.1101/2020.04.07.028951 (bioRxiv, 2020).

What was measured:
[1] = molecular target: Eggerthella lenta CBS-PPase (elPPase) (Eggerthella lenta); experiment: AUC
[2] = molecular target: dhCDC, separate regulatory part of dhPPase (residues 63-306) (Desulfitobacterium hafniense); experiment: cross-linking
[3] = molecular target: dhCDC, separate regulatory part of dhPPase (residues 63-306) (Desulfitobacterium hafniense); experiment: AUC
[4] = molecular target: dhCDC, separate regulatory part of dhPPase (residues 63-306) (Desulfitobacterium hafniense); experiment: AUC; remark: listed apart in the source
[5] = molecular target: dhPPaseΔCDC, separate catalytic part of D. hafniense CBS-PPase (Desulfitobacterium hafniense); experiment: enzyme activity after dilution
[6] = molecular target: dhPPaseΔCDC, separate catalytic part of D. hafniense CBS-PPase (Desulfitobacterium hafniense); experiment: cross-linking
[7] = molecular target: dhPPaseΔCDC, separate catalytic part of D. hafniense CBS-PPase (Desulfitobacterium hafniense); experiment: AUC
[8] = molecular target: Ethanoligenens harbinense CBS-PPase (ehPPase) (Ethanoligenens harbinense); experiment: cross-linking
[9] = molecular target: Ethanoligenens harbinense CBS-PPase (ehPPase) (Ethanoligenens harbinense); experiment: AUC
[10] = molecular target: Clostridium novyi CBS-PPase (cnPPase) (Clostridium novyi); experiment: cross-linking
[11] = molecular target: Clostridium novyi CBS-PPase (cnPPase) (Clostridium novyi); experiment: AUC
[12] = molecular target: Desulfitobacterium hafniense CBS-PPase (dhPPase), full-size (Desulfitobacterium hafniense); experiment: enzyme activity after dilution
[13] = molecular target: Desulfitobacterium hafniense CBS-PPase (dhPPase), full-size (Desulfitobacterium hafniense); experiment: cross-linking
[14] = molecular target: Desulfitobacterium hafniense CBS-PPase (dhPPase), full-size (Desulfitobacterium hafniense); experiment: AUC
cross-linking = molecular target: the molecule itself; experiment: cross-linking

Eggerthella lenta CBS-PPase (elPPase) (enzyme)
stoichiometry N [1]: 4

dhCDC, separate regulatory part of dhPPase (residues 63-306) (domain or fragment)
stoichiometry N [2]: 2 | stoichiometry N [3]: 2 | stoichiometry N [4]: 2

dhPPaseΔCDC, separate catalytic part of D. hafniense CBS-PPase (enzyme)
koff [5]: 0.04 s⁻¹ | percent dimeric at 5.8 µM [5]: 37% | stoichiometry N [6]: 2 | stoichiometry N [7]: 2

Ethanoligenens harbinense CBS-PPase (ehPPase) (enzyme)
stoichiometry N [8]: 2 | stoichiometry N [9]: 4

Clostridium novyi CBS-PPase (cnPPase) (enzyme)
stoichiometry N [10]: 4 | stoichiometry N [11]: 4

Desulfitobacterium hafniense CBS-PPase (dhPPase), full-size (enzyme)
percent dissociated at 3 µM [12]: 10% | percent tetrameric at 1 µM [12]: 79% | stoichiometry N [13]: 4 | stoichiometry N [14]: 4

B1: Clostridium perfringens CBS-PPase (cpPPase) (enzyme)
chain: MKDVIYITGHKNPDSDSICAALAYAEFKNKTQDTPAIPVRLGNVSQETQYILDYFGVEAPQFLETVKLKVEDLEMDKIAPLAPEVSLKMAWNIMRDKNLKSIPVADGNNHLLGMLSTSNITATYMDIWDSNILAKSATSLDNILDTLSAEAQNINEERKVFPGKVVVAAMQAESLKEFISEGDIAIAGDRAEIQAELIELKVSLLIVTGGHTPSKEIIELAKKNNITVITTPHDSFTASRLIVQSLPVDYVMTKDNLVAVSTDDLVEDVKVTMSETRYSNYPVIDENNKVVGSIARFHLISTHKKKVIQVDHNERGQSVHGLEDAEVLEIIDHHRVADIQTGNPIYFRNEPLGSTSTIVAKRFFENGIRPSREAAGLLCGAIISDTLLFKSPTCTPQDVKMCRKLAEIAGIVPETFAKEMFKAGTSLKGKSIEEIFNADFKPFTIEGVKVGVAQVNTMDIEGFMPLKGEMLDYMNQKAESMGLEMIMLLLTDIINEGSQILVAGRSPEIAEEAFKVKLEDSTTFLPGVLSRKKQVVPPLTQIITTRVSK
stoichiometry N (cross-linking): 4
